One protein from patent publication US7846719B2, “Express system of soluble glutaminyl cyclase” (Academia Sinica, priority 2006, dated 2010) can be followed below.

Substrate in the data set: NC(=O)CC[C@H](NC(=O)[C@@H](N)CCC(N)=O)C(=O)O
In words: Spectrophotometric QC activity assay (glutamate dehydrogenase coupled), human QC expressed in E. coli. Format: biochemical. The note with it: other: substrate of human QC expressed in Escherichia coli cell, mean ± SD (n = 2), 50 mM Tris-HCl, pH 8.0. The protocol:
For the spectrophotometric method, the 500 μl assay solutions consisted of 15 units glutamate dehydrogenase, 12 mM α-ketoglutarate, 0.6 mM NADH (a reduced form of NAD (nicotinamide adenine dinucleotide)) and varying concentrations of synthetic substrate in 50 mM Tris-HCl, pH 8.0. Reactions were started by the addition of QC (0.04 to 2.5 μg), and the activity was monitored by recording the decrease of NADH absorbance at 340 nm.
The Km and kcat values determined for the recombinant protein of the invention were very similar to the human QC expressed in Drosophila S2 cells, as evident in Table 1.

B1: recombinant human QC (Homo sapiens) (protein)
chain: ASAWPEEKNYHQPAILNSSALRQIAEGTSISEMWQNDLQPLLIERYPGSPGSYAARQHIMQRIQRLQADWVLEIDTFLSQTPYGYRSFSNIISTLNPTAKRHLVLACHYDSKYFSHWNNRVFVGATDSAVPCAMMLELARALDKKLLSLKTVSDSKPDLSLQLIFFDGEEAFLHWSPQDSLYGSRHLAAKMASTPHPPGARGTSQLHGMDLLVLLDLIGAPNPTFPNFFPNSARWFERLQAIEHELHELGLLKDHSLEGRYFQNYSYGGVIQDDHIPFLRRGVPVLHLIPSPFPEVWHTMDDNEENLDESTIDNLNKILQVFVLEYLHL
notes: corresponding to the coding region of human QC (Ala33-Leu361) was re-amplified and inserted into a pET-43.1a expression vector; Nus fusion (pET-43.1a construct) or thioredoxin fusion (pET-32a construct) (N, cleaved yes); (His)6 (pET-43.1a construct: N- and C-terminal sites; pET-32a construct: 5'-end, upstream of the Factor Xa site); made in house; host or cells: E. coli BL21 (DE3)
Take B1: the Km (in general, the concentration of substrate that gives half-maximal velocity) turned out to be 600 ± 100 µM; the kcat (usually the maximal rate divided by the concentration of active sites) stood at 8.6 ± 0.5 s⁻¹; the specificity constant (kcat/Km) (in general, the second-order rate constant that governs catalysis at low substrate concentration) turned out to be 13700 ± 500 M⁻¹ s⁻¹.
